Legend:
Experiment in all cases: IEDB peptide-MHC binding, purified MHC/competitive/radioactivity; filed as Kd, often an IC50 or EC50 that approximates it; ≥ and ≤ were set here for values at or beyond the usual limits of such assays
HLA-A*02:02 = target: HLA-A*02:02
HLA-A*02:03 = target: HLA-A*02:03
HLA-A*02:06 = target: HLA-A*02:06
HLA-A*31:01 = target: HLA-A*31:01
HLA-A*11:01 = target: HLA-A*11:01
HLA-A*68:01 = target: HLA-A*68:01
HLA-A*33:01 = target: HLA-A*33:01
HLA-A*03:01 = target: HLA-A*03:01
[1] = source organism: Vaccinia virus WR
[2] = source organism: SARS coronavirus Tor2
[3] = source organism: Dengue virus 1 Brazil/97-11/1997
[4] = source organism: Mammarenavirus juninense
[5] = source organism: Dengue virus 3 Martinique/1243/1999
[6] = source organism: Dengue virus 2 Jamaica/1409/1983
[7] = source organism: Dengue virus 4 Philippines/H241/1956

Sequence: AAKTPVIVV
- Kd (HLA-A*02:02; [1]): 1360 nM
- Kd (HLA-A*02:03; [1]): 1630 nM
- Kd (HLA-A*02:06; [1]): ≥ 25400 nM

Sequence: AARLKRSAT
- Kd (HLA-A*02:02; [1]): 12500 nM
- Kd (HLA-A*02:03; [1]): 10500 nM
- Kd (HLA-A*02:06; [1]): ≥ 63400 nM

Sequence: AIMTRCLAV
- Kd (HLA-A*02:02; [2]): 51.5 nM
- Kd (HLA-A*02:03; [2]): 14.7 nM
- Kd (HLA-A*02:06; [2]): 26.8 nM

Sequence: AINKCVDIFT
- Kd (HLA-A*02:02; [1]): ≥ 25300 nM
- Kd (HLA-A*02:03; [1]): ≥ 26400 nM
- Kd (HLA-A*02:06; [1]): ≥ 38600 nM

Sequence: ALCESITLA
- Kd (HLA-A*02:03; [3]): 17.3 nM

Sequence: ALKNSQAELT
- Kd (HLA-A*02:02; [1]): 2120 nM
- Kd (HLA-A*02:03; [1]): 980 nM
- Kd (HLA-A*02:06; [1]): ≥ 27200 nM

Sequence: ALMTLDDLAI
- Kd (HLA-A*02:02; [1]): 14.2 nM
- Kd (HLA-A*02:03; [1]): 29.3 nM
- Kd (HLA-A*02:06; [1]): 24.1 nM

Sequence: AVYFKAKWLT
- Kd (HLA-A*02:02; [1]): ≥ 27200 nM
- Kd (HLA-A*02:03; [1]): 8930 nM
- Kd (HLA-A*02:06; [1]): 8710 nM

Sequence: CLLTDTIESA
- Kd (HLA-A*02:02; [1]): 53 nM
- Kd (HLA-A*02:03; [1]): 102 nM
- Kd (HLA-A*02:06; [1]): 92.1 nM

Sequence: CNYTKFWYV
- Kd (HLA-A*02:02; [4]): 1940 nM
- Kd (HLA-A*02:03; [4]): 794 nM
- Kd (HLA-A*02:06; [4]): 34.5 nM

Sequence: CTEETKRNI
- Kd (HLA-A*02:02; [1]): ≥ 77800 nM
- Kd (HLA-A*02:03; [1]): ≥ 78100 nM
- Kd (HLA-A*02:06; [1]): ≥ 77100 nM

Sequence: CVKYLLDNDI
- Kd (HLA-A*02:02; [1]): ≥ 31800 nM
- Kd (HLA-A*02:03; [1]): 5670 nM
- Kd (HLA-A*02:06; [1]): 7580 nM

Sequence: DIMLPESDL
- Kd (HLA-A*02:02; [1]): 18500 nM
- Kd (HLA-A*02:03; [1]): ≥ 35800 nM
- Kd (HLA-A*02:06; [1]): ≥ 31600 nM

Sequence: DIRDKYMEL
- Kd (HLA-A*02:02; [1]): ≥ 24300 nM
- Kd (HLA-A*02:03; [1]): 3860 nM
- Kd (HLA-A*02:06; [1]): 14500 nM

Sequence: DMDFDLNIFM
- Kd (HLA-A*02:02; [1]): 1150 nM
- Kd (HLA-A*02:03; [1]): ≥ 5000 nM
- Kd (HLA-A*02:06; [1]): 5310 nM

Sequence: ETAIRAGYSI
- Kd (HLA-A*02:02; [1]): ≥ 25800 nM
- Kd (HLA-A*02:03; [1]): ≥ 29300 nM
- Kd (HLA-A*02:06; [1]): 17800 nM

Sequence: ETIEILRNYL
- Kd (HLA-A*02:02; [1]): 474 nM
- Kd (HLA-A*02:03; [1]): 1410 nM
- Kd (HLA-A*02:06; [1]): 0.276 nM

Sequence: EVIGLTTHCT
- Kd (HLA-A*02:02; [1]): 10500 nM
- Kd (HLA-A*02:03; [1]): 14900 nM
- Kd (HLA-A*02:06; [1]): 12200 nM

Sequence: FLAFVVFLLV
- Kd (HLA-A*02:02; [2]): 2.36 nM
- Kd (HLA-A*02:03; [2]): 211 nM
- Kd (HLA-A*02:06; [2]): 2980 nM

Sequence: FLARKGIDT
- Kd (HLA-A*02:02; [1]): 1020 nM
- Kd (HLA-A*02:03; [1]): 318 nM
- Kd (HLA-A*02:06; [1]): 3040 nM

Sequence: FTSYKRFVT
- Kd (HLA-A*02:02; [1]): 2330 nM
- Kd (HLA-A*02:03; [1]): 3380 nM
- Kd (HLA-A*02:06; [1]): 12400 nM

Sequence: GANGSTAEQL
- Kd (HLA-A*02:02; [1]): 7280 nM
- Kd (HLA-A*02:03; [1]): ≥ 45300 nM
- Kd (HLA-A*02:06; [1]): ≥ 55400 nM

Sequence: GLAFSIMKSV
- Kd (HLA-A*02:03; [5]): 11.6 nM

Sequence: GLDERFVEEL
- Kd (HLA-A*02:02; [1]): 93 nM
- Kd (HLA-A*02:03; [1]): 1210 nM
- Kd (HLA-A*02:06; [1]): 2520 nM

Sequence: GLKALYETEL
- Kd (HLA-A*02:06; source organism: Homo sapiens): ≥ 71200 nM

Sequence: GLSDRVVFV
- Kd (HLA-A*02:02; [2]): 1.04 nM
- Kd (HLA-A*02:03; [2]): 1.07 nM
- Kd (HLA-A*02:06; [2]): 68.6 nM

Sequence: GLSSGFYFEI
- Kd (HLA-A*02:02; [1]): 48.3 nM
- Kd (HLA-A*02:03; [1]): 782 nM
- Kd (HLA-A*02:06; [1]): 1730 nM

Sequence: HVLGRLITV
- Kd (HLA-A*02:06; [6]): 8.84 nM

Sequence: IIYSKAGNIL
- Kd (HLA-A*02:02; [1]): 8.48 nM
- Kd (HLA-A*02:03; [1]): 110 nM
- Kd (HLA-A*02:06; [1]): 342 nM

Sequence: ILKDPRIASI
- Kd (HLA-A*02:02; [1]): 3160 nM
- Kd (HLA-A*02:03; [1]): 1030 nM
- Kd (HLA-A*02:06; [1]): 4000 nM

Sequence: IMKDGREIV
- Kd (HLA-A*02:03; [3]): 110 nM

Sequence: ITRLEVIGL
- Kd (HLA-A*02:02; [1]): 5510 nM
- Kd (HLA-A*02:03; [1]): 213 nM
- Kd (HLA-A*02:06; [1]): 776 nM

Sequence: IVAALVFLI
- Kd (HLA-A*02:02; [2]): 0.138 nM
- Kd (HLA-A*02:03; [2]): 15.5 nM
- Kd (HLA-A*02:06; [2]): 1.81 nM

Sequence: IVNNFITKEI
- Kd (HLA-A*02:02; [1]): 1470 nM
- Kd (HLA-A*02:03; [1]): 192 nM
- Kd (HLA-A*02:06; [1]): 14200 nM

Sequence: KTANNYETI
- Kd (HLA-A*02:02; [1]): 37.2 nM
- Kd (HLA-A*02:03; [1]): 38.5 nM
- Kd (HLA-A*02:06; [1]): 329 nM

Sequence: KTRLFRSPQV
- Kd (HLA-A*02:02; [1]): 9270 nM
- Kd (HLA-A*02:03; [1]): 984 nM
- Kd (HLA-A*02:06; [1]): 433 nM

Sequence: LAFVVFLLV
- Kd (HLA-A*02:02; [2]): 458 nM
- Kd (HLA-A*02:03; [2]): 1270 nM
- Kd (HLA-A*02:06; [2]): 253 nM

Sequence: LAIKNYYRKT
- Kd (HLA-A*02:02; [1]): ≥ 36800 nM
- Kd (HLA-A*02:03; [1]): 7180 nM
- Kd (HLA-A*02:06; [1]): ≥ 69800 nM

Sequence: LVVVTTLCAI
- Kd (HLA-A*02:06; [7]): 91.2 nM

Sequence: MMILPAALA
- Kd (HLA-A*02:03; source organism: Dengue virus 3 Sri Lanka/1266/2000): 46.4 nM

Sequence: NQAVVLMGL
- Kd (HLA-A*02:06; [5]): 88.4 nM

Sequence: NQILEENMEV
- Kd (HLA-A*02:06; [7]): 29.1 nM

Sequence: RTLILAPTRV
- Kd (HLA-A*02:06; [6]): 466 nM

Sequence: RVMANNVKKK
- Kd (HLA-A*31:01; [1]): 760 nM
- Kd (HLA-A*11:01; [1]): 96 nM
- Kd (HLA-A*68:01; [1]): 539 nM
- Kd (HLA-A*33:01; [1]): ≥ 28200 nM
- Kd (HLA-A*03:01; [1]): 103 nM

Sequence: SACANGWIQY
- Kd (HLA-A*31:01; [1]): ≥ 55000 nM
- Kd (HLA-A*11:01; [1]): 59 nM
- Kd (HLA-A*68:01; [1]): 2890 nM
- Kd (HLA-A*33:01; [1]): ≥ 40500 nM
- Kd (HLA-A*03:01; [1]): 1200 nM

Sequence: SFLRKIGDK
- Kd (HLA-A*31:01; [1]): 247 nM
- Kd (HLA-A*11:01; [1]): 3930 nM
- Kd (HLA-A*68:01; [1]): ≥ 35000 nM
- Kd (HLA-A*33:01; [1]): ≥ 26200 nM
- Kd (HLA-A*03:01; [1]): 7600 nM

Sequence: SFNHVLKRK
- Kd (HLA-A*31:01; [2]): 375 nM
- Kd (HLA-A*11:01; [2]): 1790 nM
- Kd (HLA-A*68:01; [2]): ≥ 24700 nM
- Kd (HLA-A*33:01; [2]): 6790 nM
- Kd (HLA-A*03:01; [2]): 111 nM

— the Immune Epitope Database (IEDB)
